Values of other authors as cited in PMC2847435.

How the values were obtained:
[1] = target: Src pY527 tail pY527 tail (UniProt P12931)
[2] = target: PDZ ligand peptide VKESLV
[3] = target: PDZ ligand peptide VKQSLL

| Kd [1] [µM] | Kd [2] [µM] | Kd [3] [µM] | Substance |
| --- | --- | --- | --- |
| 29 | – | – | Src SH2 domain SH2 (from UniProt P12931) |
| – | 8 | 100 | syntrophin PDZ domain PDZ (from UniProt Q61234) |
